Results reported in paper PMC6007958, “Identification, characterization and application of a new peptide against anterior gradient homolog 2 (AGR2)” (Oncotarget, 2018).
No end group written: not given here. *: point of attachment. Biotin = O=C1N[C@H]2[C@H](CS[C@H]2CCCCC(=O)*)N1

Legend:
PC-3 = assay: Luminescent cytotoxicity (ATP viability, CellTiter-Glo) assay; format: cell-based; details: PC-3, 48 hours, eight concentrations, 4PL fit, read-out: IC50, cell viability
Procedure: (§1) Cells were seeded into 96-well White with Clear Flat Bottom plates (Costar). Cell density was optimized for each cell type, PC-3 and MDA-MB-231 were seeded at 0.24×10^6 cells/mL or 0.06×10^6 cells/mL. After 12 hours, treatments were added, with the stock concentration for Taxol at 400 nM (Selleckchem), H10 peptide was 200 μg/mL and the control peptide was 200 μg/mL. We tested a total of eight concentrations using three-fold serial dilutions from the stock concentration. After 48 hours of treatment, we used the CellTiter-Glo Luminescent Cell Viability Assay (Promega) according to the manufacturer's protocol. The data was analyzed on Prism software using “log(inhibitor) vs. response” option. IC50 was calculated using the 4PL equation 1 as above.

MDA-MB-231 = assay: as above; format: cell-based; details: MDA-MB-231, 48 hours, eight concentrations, 4PL fit, read-out: IC50, cell viability
Procedure: as §1

AGR2 = target: T1, AGR2 (Homo sapiens, UniProt O95994); assay: SPR competition, AGR2 binding to immobilized H10 in presence of free peptide; details: peptide 500 nM co-/pre-incubated with AGR2 500 nM
T1 construct: histidine tag (N, cleaved yes); made in house; host or cells: E. coli BL21 de3
T1 sequence (O95994 with tags, fused parts or gaps): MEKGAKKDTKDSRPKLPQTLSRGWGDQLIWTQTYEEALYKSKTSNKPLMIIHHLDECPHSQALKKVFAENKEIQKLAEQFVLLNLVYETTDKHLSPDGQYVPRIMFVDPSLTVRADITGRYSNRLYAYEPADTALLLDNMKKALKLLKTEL
Procedure: SPR measurements were carried out on a Biacore T200 (GE) and data was analyzed using Biacore T200 Evaluation Software (version 1.0). Data was analyzed for a 1:1, two-stage and bivalent binding model. Average affinities were obtained from independent experimental repeats and errors are given as mean absolute deviations. Measurements were carried out at flow rates of 20 μL/min and confirmed experimentally to avoid mass transfer limitation. For direct binding studies of AGR2 to biotinylated H10-peptide a carboxymethyl-Dextran coated CM5 chip was coated with Streptavidin using standard amine coupling chemistry. Residual activated carboxyl groups were blocked with 1,2-Ethylenediamine. In contrast to conventional ethanolamine blocking, this procedure introduces positive charges to partially compensate the negative surface charge and reduce unspecific binding by AGR2. Biotinylated peptide was loaded and remaining free biotin sites were blocked by incubating the chip in biotin containing buffer over night to allow for biotinylated peptides to be used in competition assays. Optimal binding and minimal unspecific interaction was found for a running buffer consisting of Tris (100 mM, pH 7.5), NaCl (150 mM) and MgCl2 (10 mM).

MDA-MB-231 cells = assay: Oris exclusion zone cell migration assay; format: cell-based; details: MDA-MB-231, 48 hours; H10 5 μmoles/L (10 μg/ml), taxol 5 nM, control peptide 10 μg/ml
Procedure: (§2) Cells were seeded into Oris™ 96-well plate with silicon stoppers in place (CMA1.101). Cell density was optimized for each cell type, PC-3 and MDA-MB-231 were seeded at 2.5×10^5 cells/mL or 6×10^4 cells/mL. Stoppers were removed 12 hours post seeding according to the manufacturer's protocol and treatments were added, Taxol (5 nM) (Selleckchem), H10 peptide (10 μg/ml), scrambled peptide (10 μg/ml), mouse anti-AGR2 antibody (1:50 of 2 μg/ml) (Santa Cruz Biotechnology), mouse-IgG (Santa Cruz Biotechnology), DMSO as control. After 48 hours, growth medium was aspirated and cells were fixed with 4% paraformaldehyde (Alfa Aesar) for 15 minutes at RT and washed with PBS. Cells were stained with Rhodamine phalloidin (Biotium) 1:40 and Hoechst (Invitrogen) 1:10,000 for 20 minutes at RT and washed with PBS.
(§3) Imaging was performed on a Zeiss Observer.Z1 microscope at 2.5x objective with AxioCam MRm camera and Axio Vision 4.8 software. Images were processed using ImageJ software package ( http://rsb.info.nih.gov/ij/) and following the cell migration method previously designed. The data was analyzed using GraphPad Prism 7.

[1] = test system: EGFR phosphorylation in PC3 cells; assay: Western blot of EGFR / p-EGFR-Y1068; format: cell-based; details: PC3 cells dosed 16 hours, p-EGFR-Y1068 by western blot
Procedure: We sought to ascertain a potential mechanism leading to decreased viability of cells upon exposure to H10 by examining cancer related pathways that have been linked with AGR2. […] We investigated the impact of H10 on EGFR phosphorylation as a possible mechanism of action. PC3 cells were dosed with H10 for 16 hours and the levels of EGFR and p-EGFR-Y1068 were analyzed by western blot (Figure 5C). […] Since amphiregulin is downstream of the HIPPO pathway, we also assessed the phosphorylation of the HIPPO effector, YAP1. We hypothesized that H10 may indirectly downregulate EGFR phosphorylation by altering activity of YAP1 (phosphorylation of YAP1 prevents […] translocation to the nucleus and transcription of amphiregulin [24]). Cell lysates from PC3 cells treated with H10 and the scrambled peptide were subject to immunoblot (Figure 5C).

PC-3 cells = assay: Oris exclusion zone cell migration assay; format: cell-based; details: PC-3, 48 hours; taxol 5 nM, H10 10 μg/ml, control peptide 10 μg/ml, AGR2 antibody; fluorescent microscopy of cell-free zone
Procedure: as §2, §3

[2] = target: T2, extracellular AGR2 (eAGR2) in spent media of cancer cell lines (human (endogenous in MCF-7 and 22Rv1), UniProt O95994 21-175); assay: cell-based or functional assay
T2 sequence (looked up): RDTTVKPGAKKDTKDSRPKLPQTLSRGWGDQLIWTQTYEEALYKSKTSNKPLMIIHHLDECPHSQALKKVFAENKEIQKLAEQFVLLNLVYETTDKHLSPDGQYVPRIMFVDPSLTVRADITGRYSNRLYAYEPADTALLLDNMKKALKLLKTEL

H10 peptide (biotin-…) = target: T3, H10 peptide (biotin-…); assay: ELISA; details: chain shown with the change, read off a plot
T3 chain: GGGSGMKMQVRIYLV

[3] = AGR2 100 ng/ml, parent: est. 61
[4] = AGR2 200 ng/ml, parent: est. 76
[5] = AGR2 400 ng/ml, parent: est. 82
[6] = AGR2 600 ng/ml, parent: est. 83
[7] = AGR2 800 ng/ml, parent: est. 91

Molecule | response (H10 peptide (biotin-…); [3]) | response (H10 peptide (biotin-…); [4]) | response (H10 peptide (biotin-…); [5]) | response (H10 peptide (biotin-…); [6]) | response (H10 peptide (biotin-…); [7]) | further results
Biotin-GSGSGSGSGSGSGSS [control peptide, biotinylated Gly/Ser control peptide, length 15] |  |  |  |  |  | IC50 (PC-3): > 100 µM; IC50 (MDA-MB-231): > 100 µM; suppression of AGR2 binding to immobilized H10 by free peptide (AGR2): largely ineffective; inhibition of cell migration (MDA-MB-231 cells): did not alter cell migration
GGGSG VMLKYMIQRV [scrambled peptide] |  |  |  |  |  | concentration sufficient to downregulate EGFR phosphorylation [1]: > 20 µM
CC(=O)O[C@H]1C(=O)[C@@]2(C)[C@H]([C@H](OC(=O)c3ccccc3)[C@]3(O)C[C@H](OC(=O)[C@H](O)[C@@H](NC(=O)c4ccccc4)c4ccccc4)C(C)=C1C3(C)C)[C@]1(OC(C)=O)CO[C@@H]1C[C@@H]2O [taxol] |  |  |  |  |  | inhibition of cell migration (PC-3 cells): inhibits cell migration of PC-3 cells
Biotin-GGGSGMKMQVRIYLV [H10 peptide (biotin-GGGSGMKMQVRIYLV)] |  |  |  |  |  | ATP viability assay (CellTiter-Glo), MDA-MB-231 cells, 48 hours, IC50 of H10 [2]: 12 µM; ATP viability assay (CellTiter-Glo), PC-3 cells, 48 hours, IC50 of H10 [2]: 9 µM

The next lines start with results.

response (H10 peptide (biotin-…); [3]) | response (H10 peptide (biotin-…); [4]) | response (H10 peptide (biotin-…); [5]) | response (H10 peptide (biotin-…); [6]) | response (H10 peptide (biotin-…); [7]) | Molecule | further results
30 % of binding | 27 % of binding | 30 % of binding | 36 % of binding | 55 % of binding | Δ27 AGR2 (recombinant anterior gradient protein 2 without the ER leader sequence), O95994 E96K (protein) GAKKDTKDSRPKLPQTLSRGWGDQLIWTQTYEEALYKSKTSNKPLMIIHHLDECPHSQALKKVFAENKKIQKLAEQFVLLNLVYETTDKHLSPDGQYVPRIMFVDPSLTVRADITGRYSNRLYAYEPADTALLLDNMKKALKLLKTELGLNDIFEAQKIEWHE | 
42 % of binding | 42 % of binding | 46 % of binding | 51 % of binding | 57 % of binding | Δ27 AGR2 (recombinant anterior gradient protein 2 without the ER leader sequence), O95994 E60Q (protein) GAKKDTKDSRPKLPQTLSRGWGDQLIWTQTYEQALYKSKTSNKPLMIIHHLDECPHSQALKKVFAENKEIQKLAEQFVLLNLVYETTDKHLSPDGQYVPRIMFVDPSLTVRADITGRYSNRLYAYEPADTALLLDNMKKALKLLKTELGLNDIFEAQKIEWHE | 
